Results from paper PMC10284872, “FRET analysis of the temperature-induced structural changes in human TRPV3” (Scientific Reports, 2023).
Substitutions are numbered along the chain they refer to. Numbers in names are those of the source.

B1: human TRPV3 single-cysteine construct A131C (cysteine-free background, K169A) (natural protein, UniProt Q8NET8 1-790, looked up)
chain: MKAHPKEMVPLMGKRVAAPSGNPAILPEKRPAEITPTKKSAHFFLEIEGFEPNPTVAKTSPPVFSKPMDSNIRQAISGNADDMDSPQSPQDDVTETPSNPNSPSAQLAKEEQRRKKRRLKKRIFAAVSEGCVEELVELLVELQELARRRHDEDVPDFLMHKLTASDTGATALMKALLNINPNTKEIVRILLAFAEENDILGRFINAEYTEEAYEGQTALNIAIERRQGDIAALLIAAGADVNAHAKGAFFNPKYQHEGFYFGETPLALAAATNQPEIVQLLMEHEQTDITSRDSRGNNILHALVTVAEDFKTQNDFVKRMYDMILLRSGNWELETTRNNDGLTPLQLAAKMGKAEILKYILSREIKEKRLRSLSRKFTDWAYGPVSSSLYDLTNVDTTTDNSVLEITVYNTNIDNRHEMLTLEPLHTLLHMKWKKFAKHMFFLSFLFYFFYNITLTLVSYYRPREEEAIPHPLALTHKMGWLQLLGRMFVLIWAMLISVKEGIAIFLLRPSDLQSILSDAWFHFVFFIQAVLVILSVFLYLFAYKEYLAFLVLAMALGWANMLYYTRGFQSMGMYSVMIQKVILHDVLKFLFVYIVFLLGFGVALASLIEKAPKDNKDASSYGSFSDAVLELFKLTIGLGDLNIQQNSKYPILFLFLLITYVILTFVLLLNMLIALMGETVENVSKESERIWRLQRARTILEFEKMLPEWLRSRFRMGELAKVAEDDFRLALRINEVKWTEWKTHVSFLNEDPGPVRRTDFNKIQDSSRNNSKTTLNAFEEVEEFPETSV
modifications: C131 labelled with sulfo-Cy3 maleimide or sulfo-Cy5 maleimide (1:1 mixture) in the FRET samples
notes: human TRPV3, full length; printed as A131C on the cysteine-free construct, so the native C131 stands again and the other 12 cysteines are replaced; K169A added; Homotetrameric channel in DDM/CHS with lipids; also called hTRPV3 A131C; ARD construct; source: Sf9 cells, baculovirus (Bac-to-Bac), purified (DDM/CHS solubilisation, anti-FLAG resin)
B2: human TRPV3 single-cysteine construct A619C (cysteine-free background, K169A) (natural protein, UniProt Q8NET8 1-790, looked up)
chain: B1 chain with C131A, A619C
modifications: C619 labelled with sulfo-Cy3 maleimide or sulfo-Cy5 maleimide (1:1 mixture) in the FRET samples
notes: human TRPV3, full length; printed as A619C on the cysteine-free construct, so the native C619 stands again and the other 12 cysteines are replaced; K169A added; Homotetrameric channel in DDM/CHS with lipids; also called hTRPV3 A619C; pore turret construct; source: Sf9 cells, baculovirus (Bac-to-Bac), purified (DDM/CHS solubilisation, anti-FLAG resin)
B3: human TRPV3 single-cysteine construct A721C (cysteine-free background, K169A) (natural protein, UniProt Q8NET8 1-790, looked up)
chain: B1 chain with C131A, A721C
modifications: C721 labelled with sulfo-Cy3 maleimide or sulfo-Cy5 maleimide (1:1 mixture) in the FRET samples
notes: human TRPV3, full length; printed as A721C on the cysteine-free construct, so the native C721 stands again and the other 12 cysteines are replaced; K169A added; Homotetrameric channel in DDM/CHS with lipids; also called hTRPV3 A721C; C-terminal domain construct; source: Sf9 cells, baculovirus (Bac-to-Bac), purified (DDM/CHS solubilisation, anti-FLAG resin)
B4: human TRPV3 single-cysteine construct L513C (cysteine-free background, K169A) (natural protein, UniProt Q8NET8 1-790, looked up)
chain: B1 chain with C131A, L513C
modifications: C513 labelled with sulfo-Cy3 maleimide or sulfo-Cy5 maleimide (1:1 mixture) in the FRET samples
notes: human TRPV3, full length; all 13 native cysteines replaced, L513C and K169A added; Homotetrameric channel in DDM/CHS with lipids; also called hTRPV3 L513C; S2-S3 linker construct; source: Sf9 cells, baculovirus (Bac-to-Bac), purified (DDM/CHS solubilisation, anti-FLAG resin)

Molecular target: the molecule itself
Experiment: SEC; fluorescence-detection size-exclusion chromatography (FSEC); heat-treated (42 °C) samples of each construct compared with a heat-untreated sample

Protein	stoichiometry N
B1	4
B2	4
B3	4
B4	4
